Assay results published in the DeepSol protein solubility set.

test: soluble on expression in E. coli; label from the status in PepcDB or PDB records

Soluble on expression in E. coli, not soluble:
MGSDKIHHHHHHMKFLFIVQGEGRGHLTQAITLEEMLLRNGHEVVEVLVGESSSRILPGFFNRNIQAPVKRFISPNFLPAADNKRANLKKSFTYNLLRIPEYFRSMCYINQRIKETGAEVVINFYELLTGLTYALFRPSVPYVCVGHQYLFLHQNFEFPDKNSFELRMLRFFTKMTAVRSSKKLALSFNDMEPDRGQQVVVVPPLIRQEVTAIQPEEGNYIHGYMVNSGFADSVEEFHTIYPEVPLRFFWDKADAEEVTRIDETLSFYQIDDVKFLNGMAGCRAYATTAGFESICEAMYLGKPVLMVPAHIEQDCNAHDAMRAGAGIISDSFDLKPLLRFAGTYSPNRTFVRWVRSGERRIILELEKLAASQSAITSIPTFTNYLPI, MGSDKIHHHHHHMKFPERFAHLPPYAFPRLRALLDHHAPGGDVVQLTIGEPKHEFPAWVTDVIVENASAFNNYPQNEGSDALRGAMADWAAQRYGVTLDPATRVMALNGTREGLYNAAMALCPEEKNGQRPVVLIPNPFYQVYMIAAISVAAEPVFVPATDETGHLPDYASLPEEVLNRTAIAYICSPANPQGAVASREYWQQLFALAEKYDFKVFADECYSEIYRDTAPVGALTVADEMGLDPERVVLFNSLSKRSNLPGLRCGLLAGGPETLVQVKKLRAYSGAPIPGPLQAAAAKVWADEVHVAENRALYQEKYRIADEVFAGLNGYMSPEAGFFLWLPVEDGEAATLKLWQETGVRVLPGAFLAQGKGAENPGHGYIRVALVASEEQTRASLQLLRDCLY, MGSDKIHHHHHHMKFYNRENELAELQRIQELSFEENSRLTVVTGRRRIGKTSLIMRAFEKTPTIYLFVGRKNEASLCREFITLVSQALDIYVPEEISTFKSLFRYIMEVATRQSFNLVIDEFQEFYNINKSIYSDIQDIWDQYRQKTHMNFVVSGSIYSLMEKIFHNEKEPLFGRADNIIKLSAFSLNVLKKIIKDYHPQYTNDDLLALYSFSGGVPKYVELFCDNRVLTVDGMIDFMVRDNSPFTDEGKNLLIEEFGKNYGTYFSILSAISGGYNTQTEIEALLGEKSLGGYLKRLIEDYNIVVRQRPVFSKEGSQTVRYGICDNFIHFWFNYFDRNRSLIEIKNFIGLRKLIKADYPTYSGKILEQYFKQKYAESYEFRLIGSWWEPKGNQNEIDIVAIYLDNKSAIVAEVKRQKKNFKPELFQKKVEHLENKVLAKYQINTVCLSLEDM, MGSDKIHHHHHHMKICVLYSGGKDSTYALHWAVFKGFEVVCLITLIPKREDSWMFQYPNVIYTKYQAEAMDFKLITFGTSGEKDKELEDLKKALLQAKNEGADGIVSGALLSDYQRLNISIIAEELGLKTYTPLWRKSQEEYMRWLVKEGFKFIITSASAYGFPFDLVGKEITTEDVEKIIERARRYGFNPAFEGGEAETFVTYAPLFKTQLRVNGKLKRISEYECRYEITDIH, MGSDKIHHHHHHMKIEFDVVVVGAGPSGLSCAYVLAKNGLKVAVVEKGEYPGSKNVMGGVLYVHPLKEIMPDFLEKAANSKALERNVIEQNLWLLGNEGVIKIGHRNVEWKENPNAFTVLRANFDRWFAQEVEKAGALIIPKTKVEDFLRNEKGEIAGVVTSRPKGEIHSKAVVIAEGVNPILTMKAGLRKEDLKPHMVAVAVKEVISVPEDVVNRVFGVEGNDGATIELLGSWSEGMFGMGFLYANRSSVSLGCGVLLEDLRKKKIKPYQLLENLKNHPVISDMLGEYRNNTMEYLAHLIPEGGYYAMPKVYGDRVLVCGDAAMLVNSIHREGSNHAITSGRLAAETLLEAFEKGDFSEKILKNYYLRLKESFILKDLEKYKDLMPTMEKNHQFVEIYPDLANDALKRFLQVDGTPKWDVQKQIADMVLSRRSLIGISLDLLRFWRAVR, MGSDKIHHHHHHMKIKIGKVEKRLNQIIEEEGAVYLTLLDPEEENIEEIAENVKDYADAIMVGGSIGIVNLDETVKKIKKITKLPIILFPGNVDGLSRYADAVFYMSLMNSANTYWVVTAPTLGAITILKYNLEPIPMAYLCIEPAKKTAVGYVGEIREIPQNKPKITAMYCLSAKFFGMRWAYLEAGSGASYPVNNETIALSKKLSGINIIVGGGIRKPEIAYEKVLAGADAIVTGNLLEENPKAVEMMYDAIKKAGKEKLKNK, MGSDKIHHHHHHMKILHYIPSIDRTSGGVGTYMQLLTAELGKLVELHVVTHKETNPLELKNCHVHFIENNNPFLPKEKKNFIFLLNEIKPDVFHANCCWLPMSAYTAMWARNAGYHVVYTPHGMLEPWIMKRHYWTKKFPASLLFQKRGIQIANVIHATAESEKHNLTQLGWNNNIEVIPNCVEIDKITMKESWIRNKNILFLSRVHVKKGINFLIEATANLKTELQGYTINIAGEGEESYINELKQLASKLGVENLIHFIGGVYGDKKWELFKKADLFVLPTHSENFGIVVAEALACGTPVITTQGTPWQELESYHCGWWTEIGTEATTKALKEFLQCTETQLEQMGKNGRKLIEEKYSSQKVAQDMVELYKKVCL, MGSDKIHHHHHHMKISERQKDLLKEIGNIGAGNAATAISYMINKKVEISVPNVEIVPISKVIFIAKDPEEIVVGVKMPVTGDIEGSVLLIMGTTVVKKILEILTGRAPDNLLNLDEFSASALREIGNIMCGTYVSALADFLGFKIDTLPPQLVIDMISAIFAEASIEELEDNSEDQIVFVETLLKVEEEEEPLTSYMMMIPKPGYLVKIFERMGIQE, MGSDKIHHHHHHMKIVFITTVASSIYGFRAPVIKKLIGKNHQVYAFVSEFSDNELDIIREMGVTPVTYRSNRSGVNPFSDIKSTFLIFKALKKISPDLVFPYFAKPVIFGTFAAKLAGVPRIVGMLEGLGFAFTPQPEGIPLKTKIIKGILIALYRIALPMLESLIVLNPDDKDELLHQYGIKIKNIHILGGIGLDLRQYPYSEADIPDEKEPVKFLFIGRFLKEKGIDDFIRAAEQVKGKYPDTVFTALGAIDKSRGGGGDLERFIARDIIRFPGFVNNVSEVIKAHHIFVLPSYYREGVPRSTQEAMAVGRAVITTDVPGCRETVADKVNGFLIEPWNPRILAEKMIYFIENRAAVRLMANASYAIAKDKFDAEKVDLKFLDILKA, MGSDKIHHHHHHMKIYCSKDSLITGVNTVQKAVSNKNTLPVLQGIMIRAEGQSLIFEATDLEIGIRCVVPAQVEKEGVVVLPSRLFSDLVCKLPDVLIELELQNDVINIHYNESDLSLRGYDPEEFPLLPDLFDAETFNLPVSIFKTMIKQTIFACSAEESRPVFTGCLLQIEDGSLRLIATDTHRLAYRIAEISNPEQIKFQGIIPAKTLGEIYRLLRDEDENLFIRFNQAQIVFQFGAVHLLSRLIEGQFPNYKQVIPQSCQTKVLLSARLFQDSVERASLLARDGSHTSIIKLSVDTERLSIDQTSELGKISEQMEVKKEGNDVKIAFNSKFLLDVLKIIDSEEIVFELSGSYSPGIIRPVDDPNYLYLALPVRTS, MGSDKIHHHHHHMKIYRVGGSVRDELLGLPVKDQDYVVVGATPEEMVRLGYRPVGKDFPVFLHPETHEQYALARTERKIARGYKGFEVYAAPGVTLQEDLARRDLTINAMARDEAGDIVDPFGGIADLQAGILRHIGPAFVEDPVRVLRVARFAARFGFQIAPETLELMKEIVHTGETEALVPERVWQEIAHGLMESHPSRMFYVLRECGALARILPEVDALFGVPQPAHAHPEIDTGIHVMMVIDHAASKQYPLEVRFAGLTHDLGKGTTSPDEWPRHIGHEARSVELVMGLCERIRVPGESRDLALLVARFHGDVHRALELRPATIADMLQATDAYRKKARFQAFLQACASDFHGRPGFADKPYPQKEHLSRALQVAVDVDAGAIAMQLNQSHAGKADLPMRINRQVYAARVERISSLLSHL, MGSDKIHHHHHHMKKIGIIGGGQLGKMMTLEAKKMGFYVIVLDPTPRSPAGQVADEQIVAGFFDSERIEDLVKGSDVTTYDLEHIDVQTLKKLYNEGYKIHPSPYTLEIIQDKFVQKEFLKKNGIPVPEYKLVKDLESDVREFGFPVVQKARKGGYDGRGVFIIKNEKDLENAIKGETYLEEFVEIEKELAVMVARNEKGEIACYPVVEMYFDEDANICDTVIAPARIEEKYSKIAREIATSVVEALEGVGIFGIEMFLTKQGEILVNEIAPRPHNSGHYTIEACVTSQFEQHIRAIMNLPLGSTELLIPAVMVNLLGEEGYYGKPALIGLEEALAIEGLSLHFYGKKETRPYRKMGHFTVVDRDVERALEKALRAKKILKVVSEEGAMCQG, MGSDKIHHHHHHMKKIGLTTTVPIEVLLSAGYTPIDLNNIFVGSKDYSKYIDIAEKDGFPKSLCAWIKGIYGACISNDIKEIVGVHDGDCSNTKALTEVLSMKGIKVYPFSYPSSHNINDVKDELDAFMNLFHVTLNQVEKIRTRLNKLRELGIEIDKLTFEDNKATALENHIWQISFSDLNGDIDAFNSDLIKTIADIKKREASSSKLRLGYIGVPPMTPDIYEFVTNFDAKIVYNEVQREFAFPRSSKAKDIYEQYFDYTYPYDVYFRIDEISRQIEERHIDGIIHYTQAFCYRAVQDIVIKEKLRVPVINIEGDRLNHLDARTKLRLEAFLDMLLDSKEGIF, MGSDKIHHHHHHMKKLIDYLKANKITEVECVISDMTGIARGKIAPVDKFIDEKGMRLPESVLLQTVTGDYVDDDLYDSLLDKADIDFVCVPDENAVFMLPWTVEATAQVIHDTFDKMGNPIELSPRNLLKKVLKLYEDKGWKPVIAPEMEFYLTHRNSDPDMPLIPPVGRSGRKESGRQSFSIDAANEYDPLFEDMYDWCEAQGLDIDTLIHEEGTAQMEINFSHGDALSLADQVFVFKRTLREAALKHDVCATFMAKPVTDEPGSAMHIHQSVVDIKTGKNIFTNEDGTKSAKFLCYIGGLQKYIPELLPLMAPNVNSFRRFLPGTSAPVNLEWGDENRTCGLRIPESSPQNRRIENRIAGADANSYLAIAATLLCGYMGMVEDVKPSTPVQGRANENRQGISLPLTLEEALAVMSESSAVREYLGDTFTSGYIAVKQADLENFRRVISSWEREFLLLTV, MGSDKIHHHHHHMKKLLNTLYLTQEDFYVTKEGDNIVIKQEGKVLKRFPFRIIDGIVCFSYLGVSSALVKLCTENQINLSFHTPQGRFCGRYIGSTNGNVLLRREHYRLSDREESLEYAKRFILAKISNSRKYLLRFKRDHRQQIDTKLFEAVNDELIWALEMVQAADNKDSLRGIEGQAANQYFRIFNDLVLTDKKTFYFQGRSKRPPLDCVNALLSFGYSLLTFECQSALEAVGLDSYVGFFHTDRPGRASLALDLVEEFRSYIVDRFVFSLINKGQLQKKHFEVKENGSILLTENGRAIFIDLWQKRKHTEVEHPFTKEKVKLMLLPYVQAQLLAKAIRGDLESYPPFMV, MGSDKIHHHHHHMKKVERINTIMRYINNRSHFTISEIIREFNISRSTAIRDIREIEAMGMPLVAEVGRSGGYFVMHNSILPVVRFTDNEVKALFIAFMATRNQQLPYLKSRQSLAEKLLGLISETQQDDLVLLNQLLLFEGTNPHNPDLLELSDLPHPMLEKLIQILLLDRYLLITVKEEIKSYPIYLLHLYKEKSYWIIEGFDLKEEKKLMFPVDDLINIEPYTPKKRLHKKQILERLSKKDEAINLVFELGPKAIAQFKKYHPFKVSISYTNPYQSTAILKTFIDVHNSDEVTEMTNWLLFLGKDITIKEMPEEVLKDLQERLCLYTP, MGSDKIHHHHHHMKLAKFDTQPLPHFLMESATVDYAHADIRKLAAALSSDDSTATARHCFEWVRDHIEHSMDFHREEVTCAASDVLQQGTGLCTAKSHLLVALWRANQIPAGFCYQRLTLDGPNPPYCTHGFTAVWLNGRGWYRCDARGNSKPGIHCEFTPGQENLAFSSRYDGERTYPEVWAEPWPDLLTAMEKLQNISQYRSHPIDARPPAADLCVSESAAPNME
